Among the data in PMC6754071 are binding values, retold here.

This data set deals with T1, PolR (Microlunatus phosphovorus NM-1), ORF:57668f7d.
T1 sequence: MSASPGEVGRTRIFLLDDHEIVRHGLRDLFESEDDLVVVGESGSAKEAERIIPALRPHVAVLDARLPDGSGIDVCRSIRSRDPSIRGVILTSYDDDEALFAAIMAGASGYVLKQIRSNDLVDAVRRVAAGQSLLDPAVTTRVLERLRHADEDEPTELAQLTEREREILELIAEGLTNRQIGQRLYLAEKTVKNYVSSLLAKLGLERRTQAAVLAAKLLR
Description: EMSA. Particulars: EMSA: 3.0 ug His-PolR, 1.0 ug poly(dI-dC), 8% native PAGE, buffer not given (cites Zhang 2014); footprinting: 30 min room temperature, DNase I 1 min 25 C. On the technique in general: Mobility shift assays separate free from complexed probe on a gel.
For “TGTGTCCCTTCCGTGAAACCTCGTCGGTGAAGTCTGGTGCGGGCGAGGGGAATCCCGCCCGGAGGGGAGGCTAAACCACCCAGGAGAATGAATGGAGTGTGGTGGCGCCTCGCGAGAATCCGAGCCGCTTCGGCGGATCGGCGCCCGAGGCTCCCTCCGGTGACAGCACGTTCACCCTGCC (double strand) [ppgk (MLP_RS12905) promoter]”, the binding result is “binds”.
With “CAGTTCACAGTCGCGATACTAGGTCGTAAGCCCGCCTCAAGTTGCCGCTCATGGGGTCGCCACACGCAGCTACAGGGAGGGTTCGGGCTGAGTTCACCCCTCGTTCACATCCGAACTTCGCCAGCCGGTCCATTTCGGGCATAGGCTCGAAGTCGAGCTTTTCTGATCAATCCCGAGGAATCC (double strand) [phoU (MLP_RS22885) promoter]” the entry was “no binding”; with “AGACGAGTGCTGCCGTGCACCGACTTCGCATCGGCGCCGCAACACAGTCCCCGCCCGTCGTTCGCTCGGCGTTCACCGGCGGGCCCTCGAGTCGTCAGAATGGCTGCCTAGCGTCTGGACCGGAGCCAGTGTCGCTCCTTACGTTCATTGCACGAGTCACACTCCGACAAGGGGAACGAGTGAAGAT (double strand) [pstS (MLP_RS23035) promoter]”, “binds”; with “ATTTGCAGCACTCCGTTCGCCGATTTGCAGCAGGCTTCTGTTCCGTGTGGTCCCCCGACCCAGGGGACCACGGAAACAACTGCGCAGCCCCCGCCCGAGGATCACCCGGAATCTTCCCCCAGGTTTGCCCTGACCCACAGAGGACGCCGCGGGACGAAGTCAACTTCAGCGTACGGTGGAGCACA (double strand) [ppgk (MLP_RS02595) promoter]”, “no binding”.
With “TCGTCTCGGCAGCCCTTGGGTGAACTGTTCTCCGAGCGTGAGTAACGCCTCCGGGCGAGCGAGATGAACTGTTCGTGAATCCGCCGCCCGGGGGCCGTTCCAGGTGGATTTGACCGGTTTCGGAACCCCACGATGGTCGCGTGACCGAAGCTC (double strand) [pit (MLP_RS14415) promoter]” the entry was “no binding”; with “TTCGACCTCCGTATTCGGCTATTCGACTGTCCACCCTCTTCGTTACCACCGAGGGAGACACGTCACATTCACAACTCCCGGTCTGCGGATCAGACCAGCGATGCTGTCCGTGACTGCGGAAAGCTGACGACCGGAGACTGAGCGCCGGGGACCCGTTAACCCATTGTTCGCCCGGCA (double strand) [ppk2 (MLP_RS02760) promoter]”, “no binding”; with “TCAGCCATCTGGACAACCTATCGTCCACACCACACGAGATAGCCGAGTTGGTCAGGTATTGATGCGAGTTGGGGTCGAACGTCCCGTCAGATCCGGTTCGAACGCATCACCTTTGAGTGAAGGCTCATCCGACAACGGGGATCAGCACACTCCTAG (double strand) [ppk (MLP_RS23025) promoter]”, “binds”.
With “GACAGCGATCACGGAGATCAGTAGCCAGTCCATGATTGATCTTCCCCTTGCACGGTCAACAACGACAACCCAATCGTCGTGCCATGAGATGGTCGGCCACACGGGTCTTTCGGCTCTATCTGGTCCTTCCTTCGTCACCGGGAGGGCCCGCCGCCGTTCACCCACCGTTCACTGTGCTGGTCG (double strand) [pit (MLP_RS00235) promoter]” the entry was “binds”.
As for “TCGCTCTCGGTGTTGATCGATCCGGAGCGCCCGTCCAGACCCTGCACCGATCCGTCGAGGGTCGAGACGAAGTTGCTCCGGACGACCGGTCCGGAGCCGCCTTCGGGCCAGCGATAGAGATCGATCAGGTCTGCTCGGCTGAGCTCGGCGGATGGTCGAGGGTCCGCGTG (double strand) [pap (MLP_RS11265) promoter]”, the binding result is given as “no binding”.
